T1: Broxl, long form of the human Brox protein (residues 2-411) (human, UniProt Q5VW32 2-411)
T1 sequence (looked up): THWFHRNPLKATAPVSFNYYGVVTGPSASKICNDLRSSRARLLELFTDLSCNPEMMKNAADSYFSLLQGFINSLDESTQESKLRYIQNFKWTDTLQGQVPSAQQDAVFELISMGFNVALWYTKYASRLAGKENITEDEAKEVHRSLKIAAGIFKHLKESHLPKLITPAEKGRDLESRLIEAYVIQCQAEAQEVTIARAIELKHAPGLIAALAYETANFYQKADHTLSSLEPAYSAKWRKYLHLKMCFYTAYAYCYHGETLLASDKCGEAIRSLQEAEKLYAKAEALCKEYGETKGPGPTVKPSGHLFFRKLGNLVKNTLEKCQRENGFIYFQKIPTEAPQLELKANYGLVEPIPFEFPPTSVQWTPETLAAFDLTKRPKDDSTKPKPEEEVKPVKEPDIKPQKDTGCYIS

T2: Broxs, short form of the human Brox protein (residues 2-377) (human, UniProt Q5VW32 2-377)
T2 sequence (looked up): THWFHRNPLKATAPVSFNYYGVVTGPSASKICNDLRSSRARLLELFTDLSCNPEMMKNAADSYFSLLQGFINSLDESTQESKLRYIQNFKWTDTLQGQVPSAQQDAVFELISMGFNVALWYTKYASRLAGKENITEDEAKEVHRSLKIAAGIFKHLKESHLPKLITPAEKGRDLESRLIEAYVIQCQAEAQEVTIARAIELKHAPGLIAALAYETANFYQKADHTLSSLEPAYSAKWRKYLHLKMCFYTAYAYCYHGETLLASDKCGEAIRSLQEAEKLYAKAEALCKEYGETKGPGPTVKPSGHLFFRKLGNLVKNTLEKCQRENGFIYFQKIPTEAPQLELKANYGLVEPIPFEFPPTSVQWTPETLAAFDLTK

B1: C-terminal fragment of human CHMP5 (residues 151-219) (domain or fragment, UniProt Q9NZZ3 151-219, looked up)
chain: RSYGTPELDEDDLEAELDALGDELLADEDSSYLDEAASAPAIPEGVPTDTKNKDGVLVDEFGLPQIPAS

What was measured:
[1] = target: T1, Broxl, long form of the human Brox …; assay: crystal structure
[2] = target: T2, Broxs, short form of the human Brox …; assay: crystal structure

Binder	binding result [1]	binding result [2]
TKNKDGVLVDEFGLPQIPAS [synthesized peptide corresponding to the CHMP5 C-terminal 20 residues]	binds	binds
B1	binds	binds
